# Reference: patent US20230203180A1
# Target: transferrin receptor (on Hepa 1-6 cells; in tissues of C57BL/6 wild-type mice) (mouse) (UniProt Q62351)
# Assay: cell-based or functional assay
# Chain of UniProt Q62351 (Q62351 whole entry): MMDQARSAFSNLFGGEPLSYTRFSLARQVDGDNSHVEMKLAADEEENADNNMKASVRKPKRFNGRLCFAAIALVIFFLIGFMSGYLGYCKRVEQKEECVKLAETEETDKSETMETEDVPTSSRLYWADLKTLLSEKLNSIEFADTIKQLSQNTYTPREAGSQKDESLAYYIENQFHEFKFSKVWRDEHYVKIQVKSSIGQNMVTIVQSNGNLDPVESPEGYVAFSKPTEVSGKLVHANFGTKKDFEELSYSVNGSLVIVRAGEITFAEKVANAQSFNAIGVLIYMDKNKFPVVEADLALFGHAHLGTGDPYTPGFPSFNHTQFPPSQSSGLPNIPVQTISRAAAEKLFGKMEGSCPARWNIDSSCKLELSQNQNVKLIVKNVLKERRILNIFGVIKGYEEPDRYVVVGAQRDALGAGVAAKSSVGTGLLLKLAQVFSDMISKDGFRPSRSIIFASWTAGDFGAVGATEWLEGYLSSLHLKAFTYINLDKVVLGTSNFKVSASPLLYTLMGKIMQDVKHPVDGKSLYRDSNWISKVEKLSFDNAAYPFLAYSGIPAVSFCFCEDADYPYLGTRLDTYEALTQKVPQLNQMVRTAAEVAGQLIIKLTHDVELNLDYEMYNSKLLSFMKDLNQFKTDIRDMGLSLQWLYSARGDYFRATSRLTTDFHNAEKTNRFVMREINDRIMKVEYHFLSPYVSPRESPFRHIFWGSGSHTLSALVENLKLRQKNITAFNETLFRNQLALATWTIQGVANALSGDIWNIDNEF
substance,measurement,value
antiTfR-siHPRT complex: RI7 217 anti-TfR1 Fab (DTX-A-002) covalently linked via a non-cleavable GMBS linker to HPRT siRNA (siHPRT),"reduction in HPRT expression in Hepa 1-6 cells (100 nM complex, 72 hours)",50%
same,"reduction in HPRT expression in gastrocnemius of C57BL/6 mice (single i.v. dose, 2 mg/kg RNA, day 3)",31%
same,"reduction in HPRT expression in heart of C57BL/6 mice (single i.v. dose, 2 mg/kg RNA, day 3)",30%
